± gives the uncertainty stated by the source.
Experiment: self-splicing fitness, log relative to wild type (ln ratio); higher = more splicing; Tetrahymena group I intron in knt gene, E. coli kanamycin selection, DiMSum; sequences stand for … in CUCUCU…GGAGGGAAAAGUUAUCAGGCAUGCACCUGGUAGCUAGUCUUUAAACCAAUAGAUUGCAUCGGUUUAAAAGGCAAGACCGUCAAAUUGCGGGAAAGGGGUCAACAGCCGUUCAGUACCAAGUCUCAGGGGAAACUUUGAGAUGGCCUUGCAAAGGGUAUGGUAAUAAGCUGACGGACAUGGUCCUAACCACGCAGCCAAGUCCUAAGUCAACAGAUCUUCUGUUGAUAUGGAUGCAGUUCACAGACUAAAUGUCGGUCGGGGAAGAUGUAUUCUUCUCAUAAGAUAUAGUCGGACCUCUCCUUAAUGGGAGCUAGCGGAUGAAGUGAUGCAACACUGGAGCCGCUGGGAACUAAUUUGUAUGCGAAAGUAUAUUGAUUAGUUUUGGAGUACUCGUGGUCG
Procedure, shortened: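 The eight P1ex-region nucleotides of an intron in the knt kanamycin-resistance gene on pET-22b(+) were all randomised and the library put into E. coli BL21(DE3). Six replicate transformations were grown overnight at 37°C or 30°C on LB agar with or without 25 μg/mL kanamycin, together with 100 μg/mL carbenicillin, 50 μM IPTG and 0.2% rhamnose. Colonies were pooled and amplicon-sequenced on an Illumina HiSeq 2500. Fitness from DiMSum is the error-weighted combination of wild-type-normalised replicate fold changes, kanamycin over none.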

| Sequence | self-splicing fitness (ln) (30 °C) | self-splicing fitness (ln) (37 °C) |
| --- | --- | --- |
| AAGAAGCAAUAUUACGAUGU | -1.29 ± 0.086 | -1.01 ± 0.1 |
| AAGAAGCAAUAUUACGAUUC | -1.49 ± 0.1 | -0.941 ± 0.14 |
| AAGAAGCAAUAUUACGCCGG | -2.02 ± 0.24 | -1.81 ± 0.18 |
| AAGAAGCAAUAUUACGCCUG | -0.11 ± 0.11 | -0.509 ± 0.14 |
| AAGAAGCAAUAUUACGCGAU | -3.59 ± 0.41 | -2 ± 0.42 |
| AAGAAGCAAUAUUACGCGCG | -0.562 ± 0.12 | -0.0457 ± 0.15 |
| AAGAAGCAAUAUUACGCGUU | -2.74 ± 0.11 | -1.32 ± 0.11 |
| AAGAAGCAAUAUUACGCUUG | -1.23 ± 0.11 | -0.951 ± 0.14 |
| AAGAAGCAAUAUUACGGAUG | -1.8 ± 0.076 | -2.03 ± 0.12 |
| AAGAAGCAAUAUUACGGCAG | -1.35 ± 0.099 | -0.774 ± 0.12 |
| AAGAAGCAAUAUUACGGGCU | -1.35 ± 0.13 | -2.09 ± 0.2 |
| AAGAAGCAAUAUUACGGUGC | -3.77 ± 0.2 | -1.68 ± 0.17 |
| AAGAAGCAAUAUUACGGUUC | -2.86 ± 0.14 | -0.743 ± 0.15 |
| AAGAAGCAAUAUUACGUAAA | -2.27 ± 0.1 | -1.14 ± 0.14 |
| AAGAAGCAAUAUUACGUCCC | -1.06 ± 0.16 | 0.89 ± 0.21 |
| AAGAAGCAAUAUUACGUGGG | -2.71 ± 0.13 | -2.57 ± 0.14 |
| AAGAAGCAAUAUUACGUGGU | -3.58 ± 0.14 | -2.23 ± 0.14 |
| AAGAAGCAAUAUUACGUUAG | -3.65 ± 0.31 | -2.77 ± 0.22 |
| AAGCAGCAAUAUUACGACUA | -0.00923 ± 0.1 | -0.791 ± 0.13 |
| AAGCAGCAAUAUUACGAGAU | -3.14 ± 0.17 | -1.61 ± 0.14 |
| AAGCAGCAAUAUUACGAGGG | -2.45 ± 0.14 | -2.28 ± 0.2 |
| AAGCAGCAAUAUUACGAGUA | -2.87 ± 0.19 | -2.08 ± 0.14 |
| AAGCAGCAAUAUUACGAUCG | -2.29 ± 0.14 | -0.905 ± 0.12 |
| AAGCAGCAAUAUUACGAUUU | 0.17 ± 0.061 | 0.619 ± 0.079 |
| AAGCAGCAAUAUUACGCAAU | -1.23 ± 0.085 | -1.22 ± 0.091 |
| AAGCAGCAAUAUUACGCAGC | -2.55 ± 0.16 | -3.41 ± 0.39 |

| Sequence | self-splicing fitness (ln) (30 °C) | self-splicing fitness (ln) (37 °C) |
| --- | --- | --- |
| AAGCAGCAAUAUUACGCAGU | -3.36 ± 0.23 | -1.52 ± 0.13 |
| AAGCAGCAAUAUUACGCCAG | -2.67 ± 0.36 | -1.43 ± 0.41 |
| AAGCAGCAAUAUUACGCGCA | -1.73 ± 0.14 | -0.501 ± 0.2 |
| AAGCAGCAAUAUUACGCUAG | -2.56 ± 0.12 | -2.84 ± 0.14 |
| AAGCAGCAAUAUUACGGAAA | -2.74 ± 0.12 | -2.26 ± 0.14 |
| AAGCAGCAAUAUUACGGCAA | -0.0737 ± 0.06 | 0.139 ± 0.081 |
| AAGCAGCAAUAUUACGGCGU | -0.0119 ± 0.067 | 0.201 ± 0.079 |
| AAGCAGCAAUAUUACGGGAA | -3.05 ± 0.22 | -2.15 ± 0.17 |
| AAGCAGCAAUAUUACGGUAU | -1.55 ± 0.055 | -1.13 ± 0.078 |
| AAGCAGCAAUAUUACGUCCC | -1.01 ± 0.15 | -0.803 ± 0.2 |
| AAGCAGCAAUAUUACGUCCU | -0.341 ± 0.081 | -0.442 ± 0.094 |
| AAGCAGCAAUAUUACGUUUA | -1.53 ± 0.084 | -0.691 ± 0.074 |
| AAGGAGCAAUAUUACGAGAU |  | -2.41 ± 0.24 |
| AAGGAGCAAUAUUACGCCGA | -2.33 ± 0.18 | -0.979 ± 0.26 |
| AAGGAGCAAUAUUACGCGCG | -2.19 ± 0.24 | -0.975 ± 0.23 |
| AAGGAGCAAUAUUACGCUAG | -2.17 ± 0.2 |  |
| AAGGAGCAAUAUUACGCUCA |  | -0.14 ± 0.37 |
| AAGGAGCAAUAUUACGGACG |  | -0.216 ± 0.26 |
| AAGGAGCAAUAUUACGGAUU | -2.19 ± 0.11 | -1.69 ± 0.095 |
| AAGGAGCAAUAUUACGGCCG | -1.99 ± 0.45 |  |
| AAGGAGCAAUAUUACGGCUA | -1.92 ± 0.12 | -0.126 ± 0.13 |
| AAGGAGCAAUAUUACGGGCU | -2.94 ± 0.24 | -2.53 ± 0.28 |
| AAGGAGCAAUAUUACGGGGA | -3.91 ± 0.29 | -2.25 ± 0.25 |
| AAGGAGCAAUAUUACGUGAA | -2.22 ± 0.34 |  |
| AAGGAGCAAUAUUACGUGCG | -2.36 ± 0.19 | -2.09 ± 0.23 |
| AAGGAGCAAUAUUACGUUGC | -4.58 ± 0.42 | -1.71 ± 0.23 |

| Sequence | self-splicing fitness (ln) (30 °C) | self-splicing fitness (ln) (37 °C) |
| --- | --- | --- |
| AAGGAGCAAUAUUACGUUGU | -2.61 ± 0.15 | -2.53 ± 0.21 |
| AAGUAGCAAUAUUACGAACA | -1.1 ± 0.13 | -0.811 ± 0.18 |
| AAGUAGCAAUAUUACGACAA | -0.505 ± 0.073 | 0.0804 ± 0.084 |
| AAGUAGCAAUAUUACGACAU | 0.0523 ± 0.012 | -0.0429 ± 0.033 |
| AAGUAGCAAUAUUACGACCA | -1.55 ± 0.16 | 0.396 ± 0.21 |
| AAGUAGCAAUAUUACGACUA | -0.0153 ± 0.098 | 0.0263 ± 0.13 |
| AAGUAGCAAUAUUACGAGGG | -3.71 ± 0.24 | -3.29 ± 0.28 |
| AAGUAGCAAUAUUACGAGUU | -1.86 ± 0.098 | -0.204 ± 0.096 |
| AAGUAGCAAUAUUACGAUCC | -0.772 ± 0.19 | -0.304 ± 0.29 |
| AAGUAGCAAUAUUACGAUGA | -0.567 ± 0.14 | -0.511 ± 0.15 |
| AAGUAGCAAUAUUACGCAAU | -2.09 ± 0.14 | -1.46 ± 0.17 |
| AAGUAGCAAUAUUACGCGCU | -1.47 ± 0.11 | -0.822 ± 0.12 |
| AAGUAGCAAUAUUACGCGUA | -2.15 ± 0.13 | -1.29 ± 0.14 |
| AAGUAGCAAUAUUACGCUCA | -0.287 ± 0.076 | 0.5 ± 0.094 |
| AAGUAGCAAUAUUACGGACU | -0.577 ± 0.11 | -0.212 ± 0.15 |
| AAGUAGCAAUAUUACGGAUG | -3.53 ± 0.39 | -1.76 ± 0.17 |
| AAGUAGCAAUAUUACGGGAG | -4.01 ± 0.27 | -2.82 ± 0.23 |
| AAGUAGCAAUAUUACGGGUA | -1.49 ± 0.16 | -1.09 ± 0.17 |
| AAGUAGCAAUAUUACGGUAC | -2.65 ± 0.18 | -1.75 ± 0.18 |
| AAGUAGCAAUAUUACGGUCU | -0.291 ± 0.062 | -0.0526 ± 0.086 |
| AAGUAGCAAUAUUACGUACA | -0.476 ± 0.11 | -0.759 ± 0.14 |
| AAGUAGCAAUAUUACGUAGG | -4.35 ± 0.28 | -1.75 ± 0.18 |
| AAGUAGCAAUAUUACGUAUG | -3.38 ± 0.22 | -1.4 ± 0.19 |
| AAGUAGCAAUAUUACGUCGU | -0.969 ± 0.093 | -0.724 ± 0.11 |
| AAGUAGCAAUAUUACGUGAC | -2.41 ± 0.19 | -1.85 ± 0.4 |
| AAGUAGCAAUAUUACGUGAU | -2.24 ± 0.098 | -1.77 ± 0.12 |

— the supplement of paper PMC7877785
